Data taken from paper PMC10232555.

Target: Vim93-302-Eb1 (vimentin residues 93 to 302 followed by the Eb1 capping motif) (UniProt P08670)
Assay: SEC-MALS; data not shown; HS conditions

stoichiometry N: 4
Substance: Vim93-302-Eb1 (vimentin residues 93 to 302 followed by the Eb1 capping motif) (from UniProt P08670 93-302) (domain or fragment)
